{"source": "the supplement of paper PMC9732359", "note": "± gives the uncertainty stated by the source.", "data": [{"test": "protein stability index of a GFP-peptide fusion (yeast GPS) (PSI 1-4); higher = more stable; sorted into four equal gates, so the index is relative within each strain", "settings": "ubr1∆", "in_short": "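Yeast carrying a pooled library were grown to mid-log phase in leucine-free medium. Each library plasmid expresses Cherry and has a tiled 17-residue yeast protein peptide fused downstream of GFP. Cells were sorted into four equal gates by GFP/Cherry ratio, and plasmids from each gate were PCR-amplified, Illumina-sequenced and assigned to strains by barcode. Summing, across gates, the read frequency times the gate number gave each peptide's protein stability index.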", "values": [{"sequence": "QRETMKERKLRENIAML [SMC1]", "protein stability index": "3.42 ± 0.066"}, {"sequence": "QRHIAVGKQIVNIPSFM [RPS9A]", "protein stability index": "2.8 ± 0.065"}, {"sequence": "QRIIADLSADKPTSPFI [SRB8]", "protein stability index": "2.94 ± 0.048"}, {"sequence": "QRQERLRQQQQQQDQPE [RPN10]", "protein stability index": "3.22 ± 0.056"}, {"sequence": "QRSNISTAIKSLVALGI [CDC53]", "protein stability index": "2.48 ± 0.037"}, {"sequence": "QRVCLRSDSYMLHKVLE [RPT6]", "protein stability index": "2.84 ± 0.047"}, {"sequence": "QSESRQKRQLHDISKTE [SNU114]", "protein stability index": "3.04 ± 0.046"}, {"sequence": "QSKKLIEEKLSSFSKKT [YIL149C/MLP2]", "protein stability index": "3.02 ± 0.045"}, {"sequence": "QSKLKDVVEYLDKVINK [RPN8]", "protein stability index": "2.55 ± 0.046"}, {"sequence": "QSLDTIGGSDAAFEKRY [RPO21]", "protein stability index": "3.25 ± 0.06"}, {"sequence": "QSVYNDEKLKTEKLKND [SRB8]", "protein stability index": "3.36 ± 0.22"}, {"sequence": "QSYGGRPYGVGLLIIGY [PRE5]", "protein stability index": "2.56 ± 0.071"}, {"sequence": "QTANEKHITVRLTAKRL [SRP14]", "protein stability index": "2.92 ± 0.065"}, {"sequence": "QTAVTCESCSTVLCTPT [RPS27B]", "protein stability index": "2.09 ± 0.066"}, {"sequence": "QTLLQRSEDPAGLGKTN [YGR119C/NUP57]", "protein stability index": "3.39 ± 0.091"}, {"sequence": "QTLYTGDKVVVTIWYRA [SSN3]", "protein stability index": "1.47 ± 0.047"}, {"sequence": "QVVGPFHTSFSAVVGPN [SMC4]", "protein stability index": "2.73 ± 0.037"}, {"sequence": "QWSMVAQRLQISDYQQL [SWI1]", "protein stability index": "1.41 ± 0.054"}, {"sequence": "QWYTLQSQLNVTLSQLV [MED8]", "protein stability index": "1.67 ± 0.032"}, {"sequence": "RAFLIEEQKIVKKVVKE [RPL34A]", "protein stability index": "3.26 ± 0.091"}, {"sequence": "RAGGAAASLIMPFLDNQ [PRE7]", "protein stability index": "1.11 ± 0.11"}, {"sequence": "RAIILERNAAYQKEYET [RPL7A]", "protein stability index": "2.89 ± 0.079"}, {"sequence": "RAKALGIKVTNPKGRLA [RPL32]", "protein stability index": "3.39 ± 0.27"}, {"sequence": "RAPQQSVLQLFQSVQLN [SMC2]", "protein stability index": "1.91 ± 0.034"}, {"sequence": "RASIEYYVGQVMRNNES [DIS3]", "protein stability index": "3.26 ± 0.063"}, {"sequence": "RAYRIIRAHQTELTHHL [QCR7]", "protein stability index": "2.96 ± 0.064"}, {"sequence": "RDGGLRLGEMERDCVIA [RET1]", "protein stability index": "3.34 ± 0.095"}, {"sequence": "RDKKEKKQAQKQTKLRK [SMB1]", "protein stability index": "3.4 ± 0.045"}, {"sequence": "RDLSEASVYPEYALPKT [RPS26A]", "protein stability index": "3.09 ± 0.034"}, {"sequence": "REGLIDTAVKTAETGYI [RPO21]", "protein stability index": "1.13 ± 0.051"}, {"sequence": "REKRDRTHFKRMRFPPF [PRP8]", "protein stability index": "2.2 ± 0.047"}, {"sequence": "RENMICKIDFQKNFMDQ [RRI2]", "protein stability index": "3.24 ± 0.081"}, {"sequence": "RERRAALTDFERFQVMV [RPL14A]", "protein stability index": "1.8 ± 0.07"}, {"sequence": "RESFEDNVVRFLNEARD [RPO21]", "protein stability index": "2.92 ± 0.11"}, {"sequence": "RETDPLVYNMTSFEQGE [RPT4]", "protein stability index": "2.7 ± 0.068"}, {"sequence": "RETLVKTWEKVTLDFGN [SMC2]", "protein stability index": "1.27 ± 0.12"}, {"sequence": "RFAFSVIWELDDSANIV [DIS3]", "protein stability index": "2.62 ± 0.047"}, {"sequence": "RFISDLLWLVLIHPENF [SWI1]", "protein stability index": "2.59 ± 0.18"}, {"sequence": "RFKSQFLYVLIPAGIYW [QCR8]", "protein stability index": "2.37 ± 0.092"}, {"sequence": "RFKYAPGTIVLYAERVQ [RPS3]", "protein stability index": "1.84 ± 0.093"}, {"sequence": "RFNVVKVSAAAGKANKQ [RPS11A]", "protein stability index": "2.22 ± 0.067"}, {"sequence": "RFVLSDDYSNLKREERQ [SMC3]", "protein stability index": "2.7 ± 0.059"}, {"sequence": "RFYQLGVDLKLKYSKRR [CSN12]", "protein stability index": "1.15 ± 0.088"}, {"sequence": "RGDSTETSSFGSMFSGD [RRI1]", "protein stability index": "3.27 ± 0.15"}, {"sequence": "RGHRIRREFKQYSLERN [PRP8]", "protein stability index": "1.97 ± 0.12"}, {"sequence": "RGHVLQFEWHQNSLLTN [SNF2]", "protein stability index": "2.6 ± 0.048"}, {"sequence": "RGIPRISTLFQRDRHTL [PRP8]", "protein stability index": "2.68 ± 0.085"}, {"sequence": "RGKNEIIQNAQRDAVTL [RPO21]", "protein stability index": "3.04 ± 0.066"}, {"sequence": "RGQQVENPTDNFIIWIN [GRR1]", "protein stability index": "2.61 ± 0.061"}, {"sequence": "RGSLDSEHVFDYFFYFL [NUT1]", "protein stability index": "3.16 ± 0.032"}, {"sequence": "RGSSSLYTLVINDAGKA [RPL38]", "protein stability index": "1.12 ± 0.086"}, {"sequence": "RHFWGLRVRGQHTKTTG [RPS18A]", "protein stability index": "2.16 ± 0.056"}, {"sequence": "RHGSVVEASRRRRSSTN [MED1]", "protein stability index": "3.3 ± 0.044"}, {"sequence": "RIARALKQEGAANKTVV [RPL18A]", "protein stability index": "3.33 ± 0.052"}, {"sequence": "RIGTIVHKERHDGGFDL [RPS4A]", "protein stability index": "1.99 ± 0.23"}, {"sequence": "RIMEKSVILSVISMFVL [YML031W/NDC1]", "protein stability index": "1.12 ± 0.049"}, {"sequence": "RIMSRNFYLKRFISDLL [SWI1]", "protein stability index": "1.54 ± 0.034"}, {"sequence": "RIQNRVKLGLNSKMPTR [PRP8]", "protein stability index": "2.91 ± 0.13"}, {"sequence": "RIVNHKTKLWGFKWLNK [LIN1]", "protein stability index": "2.88 ± 0.091"}, {"sequence": "RKDENQFSYVDSSMTTV [AAR2]", "protein stability index": "3.06 ± 0.04"}, {"sequence": "RKILKKTFKNPKYESLK [RPN5]", "protein stability index": "3.19 ± 0.062"}, {"sequence": "RKKRTRRLKRKRRKVRA [RPL41A]", "protein stability index": "3.17 ± 0.086"}, {"sequence": "RKLGLLGDKEDEKQSAK [MTW1]", "protein stability index": "3.28 ± 0.067"}, {"sequence": "RKMTTDDDINWQELARS [RPT5]", "protein stability index": "3 ± 0.07"}, {"sequence": "RKQRVKKKTKKELELER [SWI1]", "protein stability index": "2.2 ± 0.13"}, {"sequence": "RKSYKNQIADLSGKFST [ROX3]", "protein stability index": "2.92 ± 0.036"}, {"sequence": "RKVENIRTILVNIHHLL [MED7]", "protein stability index": "1.32 ± 0.033"}, {"sequence": "RKVREQEELKKRQELEE [MED2]", "protein stability index": "2.55 ± 0.033"}, {"sequence": "RLFNVVVQDSQTATQLL [SMC2]", "protein stability index": "2.44 ± 0.079"}, {"sequence": "RLGEMERDCVIAYGASQ [RET1]", "protein stability index": "3.22 ± 0.062"}, {"sequence": "RLGLIPLQSMDIEQLEY [RPB3]", "protein stability index": "2.72 ± 0.083"}, {"sequence": "RLILLLNHRNKNQHRAA [RMP1]", "protein stability index": "2.13 ± 0.089"}, {"sequence": "RLISSKMPGGFTITVAR [FAS2]", "protein stability index": "1.92 ± 0.044"}, {"sequence": "RLLPNGSNKAQISIIDI [YML031W/NDC1]", "protein stability index": "2.92 ± 0.035"}, {"sequence": "RLRQGAAKLRTLDYAER [RPL2A]", "protein stability index": "1.56 ± 0.048"}, {"sequence": "RLYLKDQTNHIESDSIL [ECM29]", "protein stability index": "2.62 ± 0.035"}, {"sequence": "RNSPFWWTNSHHDGKLW [PRP8]", "protein stability index": "2.78 ± 0.049"}, {"sequence": "RNSWNFALIDYFYDLDV [BRN1]", "protein stability index": "2.06 ± 0.044"}, {"sequence": "RPTEKPVGRELDPISLI [RPN13]", "protein stability index": "3.19 ± 0.094"}, {"sequence": "RQKNVIHRAARPTRPDK [RPL15A]", "protein stability index": "3.24 ± 0.2"}, {"sequence": "RQMNLVITLLNNSSITL [YCS4]", "protein stability index": "1.35 ± 0.035"}, {"sequence": "RQPANTKIGAKRIHSVR [RPS8A]", "protein stability index": "3.04 ± 0.076"}, {"sequence": "RQSSVGSLNATNFSPTP [SNF2]", "protein stability index": "2.96 ± 0.051"}, {"sequence": "RQTGPAKINEVYNNSKD [NSL1]", "protein stability index": "2.9 ± 0.062"}, {"sequence": "RRERRLIFGTIASKMSL [RPT3]", "protein stability index": "2.45 ± 0.038"}, {"sequence": "RRIKEAEENLKKRIRLP [YIL149C/MLP2]", "protein stability index": "2.02 ± 0.07"}, {"sequence": "RRRTYRAHGRINKYESS [RPL17A]", "protein stability index": "2.05 ± 0.065"}, {"sequence": "RSCVSNSNENGTLERIK [RPN4]", "protein stability index": "2.95 ± 0.057"}, {"sequence": "RSDGMGNVLLNATVVDS [YLR335W/NUP2]", "protein stability index": "3.15 ± 0.093"}, {"sequence": "RSEEEVTKLNVLVDEIK [YIL149C/MLP2]", "protein stability index": "3.36 ± 0.082"}, {"sequence": "RSILQSLNPALQEKIST [SWI1]", "protein stability index": "2.71 ± 0.073"}, {"sequence": "RSISKELIVSEEIPINS [SIR3]", "protein stability index": "1.99 ± 0.036"}, {"sequence": "RSISWAPSIGRWYQLIA [YGL100W/SEH1]", "protein stability index": "1.11 ± 0.063"}, {"sequence": "RSKSSHKNERRVLEIQT [SKI6]", "protein stability index": "3.37 ± 0.061"}, {"sequence": "RSLLLSRVRADDLSTRF [RRP43]", "protein stability index": "2.92 ± 0.16"}, {"sequence": "RSLRATAEERVGRRAAN [RPL15A]", "protein stability index": "2.95 ± 0.1"}, {"sequence": "RSLVREIAGLSPYERRL [RPL36A]", "protein stability index": "2.82 ± 0.11"}, {"sequence": "RSNDPQSSLSKVDIPLE [NUT2]", "protein stability index": "2.93 ± 0.15"}, {"sequence": "RSPTRRLELLQLSPVKN [SMC4]", "protein stability index": "1.68 ± 0.13"}, {"sequence": "RSQDVRSTDRDRVKVIE [CSL4]", "protein stability index": "2.97 ± 0.079"}, {"sequence": "RTAPKSDNVYLKLLVKL [RPL18A]", "protein stability index": "3.03 ± 0.068"}, {"sequence": "RTHFKRMRFPPFDDDEP [PRP8]", "protein stability index": "2.77 ± 0.035"}, {"sequence": "RTIGIAVDHRRQNRNQE [RPL13A]", "protein stability index": "2.86 ± 0.22"}]}]}
